Assay results published in publication PMC10397247.
Each block holds one binder with its values, some of them ahead of it.

What was measured:
4H1393-bH = biological target: T1, 4H1393-bH; experiment: two-hybrid library CCNG1;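 further: natural log of median RNA to DNA barcode read ratio; higher means stronger binding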
T1 chain: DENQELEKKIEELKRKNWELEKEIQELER

4H1629-bH = biological target: T2, 4H1629-bH; experiment: two-hybrid library CCNG1;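 further: natural log of median RNA to DNA barcode read ratio; higher means stronger binding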
T2 chain: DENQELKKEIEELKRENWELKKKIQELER

4H3628-bA = biological target: T3, 4H3628-bA; experiment: two-hybrid library CCNG1;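 further: natural log of median RNA to DNA barcode read ratio; higher means stronger binding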
T3 chain: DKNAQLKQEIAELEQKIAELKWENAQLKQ

4H1449-bH = biological target: T4, 4H1449-bH; experiment: two-hybrid library CCNG1;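 further: natural log of median RNA to DNA barcode read ratio; higher means stronger binding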
T4 chain: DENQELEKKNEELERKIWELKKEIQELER

4H3817-bH = biological target: T5, 4H3817-bH; experiment: two-hybrid library CCNG1
T5 chain: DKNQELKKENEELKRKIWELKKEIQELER

4H906-bH = biological target: T6, 4H906-bH; experiment: two-hybrid library CCNG1
T6 chain: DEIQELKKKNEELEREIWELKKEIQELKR

4H570-bH = biological target: T7, 4H570-bH; experiment: two-hybrid library CCNG1
T7 chain: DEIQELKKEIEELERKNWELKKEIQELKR

4H584-bH = biological target: T8, 4H584-bH; experiment: two-hybrid library CCNG1
T8 chain: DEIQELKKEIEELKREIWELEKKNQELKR

4H1710-bH = biological target: T9, 4H1710-bH; experiment: two-hybrid library CCNG1
T9 chain: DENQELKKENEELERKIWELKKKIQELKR

4H3129-bH = biological target: T10, 4H3129-bH; experiment: two-hybrid library CCNG1
T10 chain: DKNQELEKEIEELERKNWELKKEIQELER

4H619-bH = biological target: T11, 4H619-bH; experiment: two-hybrid library CCNG1
T11 chain: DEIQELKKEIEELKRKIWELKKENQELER

4H850-bH = biological target: T12, 4H850-bH; experiment: two-hybrid library CCNG1
T12 chain: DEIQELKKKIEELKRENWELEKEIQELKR

4H3974-bH = biological target: T13, 4H3974-bH; experiment: two-hybrid library CCNG1
T13 chain: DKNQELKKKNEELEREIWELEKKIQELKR

4H3172-bH = biological target: T14, 4H3172-bH; experiment: two-hybrid library CCNG1
T14 chain: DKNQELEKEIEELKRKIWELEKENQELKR

4H3638-bH = biological target: T15, 4H3638-bH; experiment: two-hybrid library CCNG1
T15 chain: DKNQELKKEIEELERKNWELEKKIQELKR

4H3414-bH = biological target: T16, 4H3414-bH; experiment: two-hybrid library CCNG1
T16 chain: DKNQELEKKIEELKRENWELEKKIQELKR

4H2702-bA = biological target: T17, 4H2702-bA; experiment: two-hybrid library CCNG1
T17 chain: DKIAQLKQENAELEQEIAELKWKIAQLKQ

4H1804-bH = biological target: T18, 4H1804-bH; experiment: two-hybrid library CCNG1
T18 chain: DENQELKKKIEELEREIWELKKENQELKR

APC2257-AA = biological target: T19, APC2257-AA; experiment: two-hybrid library CCmax; conditions: mean of both orientations
T19 chain: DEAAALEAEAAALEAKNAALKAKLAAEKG

APC9806-AA = biological target: T20, APC9806-AA; experiment: two-hybrid library CCmax; conditions: mean of both orientations
T20 chain: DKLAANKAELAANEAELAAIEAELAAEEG

APC3265-AA = biological target: T21, APC3265-AA; experiment: two-hybrid library CCmax; conditions: mean of both orientations
T21 chain: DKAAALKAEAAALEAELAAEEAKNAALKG

APC222-AA = biological target: T22, APC222-AA; experiment: two-hybrid library CCmax; conditions: mean of both orientations
T22 chain: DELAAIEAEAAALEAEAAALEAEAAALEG

APC1916-AA = biological target: T23, APC1916-AA; experiment: two-hybrid library CCmax
T23 chain: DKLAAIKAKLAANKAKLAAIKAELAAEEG

APC9141-AA = biological target: T24, APC9141-AA; experiment: two-hybrid library CCmax; conditions: mean of both orientations
T24 chain: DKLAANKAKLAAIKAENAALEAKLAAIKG

APC4336-AA = biological target: T25, APC4336-AA; experiment: two-hybrid library CCmax; conditions: mean of both orientations
T25 chain: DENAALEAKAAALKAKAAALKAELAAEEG

APC2811-AA = biological target: T26, APC2811-AA; experiment: two-hybrid library CCmax; conditions: mean of both orientations
T26 chain: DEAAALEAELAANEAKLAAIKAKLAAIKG

APC6088-AA = biological target: T27, APC6088-AA; experiment: two-hybrid library CCmax; conditions: mean of both orientations
T27 chain: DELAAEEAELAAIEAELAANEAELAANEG

APC2724-AA = biological target: T28, APC2724-AA; experiment: two-hybrid library CCmax; conditions: mean of both orientations
T28 chain: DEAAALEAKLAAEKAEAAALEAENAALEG

APC2375-AA = biological target: T29, APC2375-AA; experiment: two-hybrid library CCmax; conditions: mean of both orientations
T29 chain: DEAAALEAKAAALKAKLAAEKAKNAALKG

APC8401-AA = biological target: T30, APC8401-AA; experiment: two-hybrid library CCmax; conditions: mean of both orientations
T30 chain: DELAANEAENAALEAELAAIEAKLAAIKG

APC2981-AA = biological target: T31, APC2981-AA; experiment: two-hybrid library CCmax; conditions: mean of both orientations
T31 chain: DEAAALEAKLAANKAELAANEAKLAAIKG

APC2543-AA = biological target: T32, APC2543-AA; experiment: two-hybrid library CCmax; conditions: mean of both orientations
T32 chain: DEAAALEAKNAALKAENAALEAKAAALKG

APC9182-AA = biological target: T33, APC9182-AA; experiment: two-hybrid library CCmax; conditions: mean of both orientations
T33 chain: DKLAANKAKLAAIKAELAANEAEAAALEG

APC8516-AA = biological target: T34, APC8516-AA; experiment: two-hybrid library CCmax; conditions: mean of both orientations
T34 chain: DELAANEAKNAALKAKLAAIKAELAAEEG

APC5531-AA = biological target: T35, APC5531-AA; experiment: two-hybrid library CCmax; conditions: mean of both orientations
T35 chain: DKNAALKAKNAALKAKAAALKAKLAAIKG

APC9291-AA = biological target: T36, APC9291-AA; experiment: two-hybrid library CCmax; conditions: mean of both orientations
T36 chain: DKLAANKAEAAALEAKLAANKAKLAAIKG

APC2556-AA = biological target: T37, APC2556-AA; experiment: two-hybrid library CCmax; conditions: mean of both orientations
T37 chain: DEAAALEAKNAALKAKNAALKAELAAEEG

APC3354-AA = biological target: T38, APC3354-AA; experiment: two-hybrid library CCmax; conditions: mean of both orientations
T38 chain: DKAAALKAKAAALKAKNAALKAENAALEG

APC3323-AA = biological target: T39, APC3323-AA; experiment: two-hybrid library CCmax; conditions: mean of both orientations
T39 chain: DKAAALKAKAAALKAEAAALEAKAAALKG

APC7524-AA = biological target: T40, APC7524-AA; experiment: two-hybrid library CCmax; conditions: mean of both orientations
T40 chain: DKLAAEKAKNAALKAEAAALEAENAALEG

APC4100-AA = biological target: T41, APC4100-AA; experiment: two-hybrid library CCmax; conditions: mean of both orientations
T41 chain: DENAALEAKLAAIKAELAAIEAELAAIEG

APC542-AA = biological target: T42, APC542-AA; experiment: two-hybrid library CCmax; conditions: mean of both orientations
T42 chain: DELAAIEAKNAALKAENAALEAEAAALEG

APC5009-AA = biological target: T43, APC5009-AA; experiment: two-hybrid library CCmax; conditions: mean of both orientations
T43 chain: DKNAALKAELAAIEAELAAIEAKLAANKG

APC2474-AA = biological target: T44, APC2474-AA; experiment: two-hybrid library CCmax; conditions: mean of both orientations
T44 chain: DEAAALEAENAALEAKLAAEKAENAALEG

APC3881-AA = biological target: T45, APC3881-AA; experiment: two-hybrid library CCmax; conditions: mean of both orientations
T45 chain: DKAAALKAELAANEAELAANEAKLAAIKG

APC1987-AA = biological target: T46, APC1987-AA; experiment: two-hybrid library CCmax; conditions: mean of both orientations
T46 chain: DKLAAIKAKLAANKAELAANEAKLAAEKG

interaction score (4H1393-bH): -0.111 | interaction score (4H1629-bH): -0.557 | interaction score (4H3628-bA): -0.789 | interaction score (4H1449-bH): -2.77 | interaction score (4H3817-bH): -0.474 | interaction score (4H906-bH): -1.05 | interaction score (4H570-bH): -0.453 | interaction score (4H584-bH): -0.3 | interaction score (4H1710-bH): -0.501 | interaction score (4H3129-bH): 0.0961 | interaction score (4H619-bH): -1.79 | interaction score (4H850-bH): 0.00584 | interaction score (4H3974-bH): 0.0308 | interaction score (4H3172-bH): -0.553 | interaction score (4H3638-bH): 1.2 | interaction score (4H3414-bH): 1 | interaction score (4H2702-bA): -2.15 | interaction score (4H1804-bH): -1.63
Binder: DENQELEKKIEELKRKNWELEKEIQELER [4H1393-bH]

interaction score (APC2257-AA): -1.73 | interaction score (APC9806-AA): -2.04 | interaction score (APC3265-AA): -1.75 | interaction score (APC222-AA): -1.45 | interaction score (APC1916-AA): -1.89 | interaction score (APC9141-AA): -1.7 | interaction score (APC4336-AA): -1.64 | interaction score (APC2811-AA): -2.01 | interaction score (APC6088-AA): -1.82 | interaction score (APC2724-AA): -1.83 | interaction score (APC2375-AA): -1.88 | interaction score (APC8401-AA): -0.817 | interaction score (APC2981-AA): -1.78 | interaction score (APC2543-AA): -1.62 | interaction score (APC9182-AA): -1.82 | interaction score (APC8516-AA): -1.83 | interaction score (APC5531-AA): -1.75 | interaction score (APC9291-AA): -2.08 | interaction score (APC2556-AA): -1.71 | interaction score (APC3354-AA): -1.8 | interaction score (APC3323-AA): -1.94 | interaction score (APC7524-AA): -1.57 | interaction score (APC4100-AA): 0.352 | interaction score (APC542-AA): -1.62 | interaction score (APC5009-AA): -0.00974 | interaction score (APC2474-AA): -1.31 | interaction score (APC3881-AA): -1.78 | interaction score (APC1987-AA): -2.06
Binder: DKLAAIKAKLAANKAKLAAIKAELAAEEG [APC1916-AA]
